Biological target: albumin (on albumin-functionalized agarose resin) (UniProt P07724)
Assay: pull-down; AF647-labelled eOD or amph-eOD incubated with albumin-functionalized agarose resin for 2 hours at 37°C; resin separated and protein remaining in solution measured

UniProt P07724, sequence (P07724 25-608): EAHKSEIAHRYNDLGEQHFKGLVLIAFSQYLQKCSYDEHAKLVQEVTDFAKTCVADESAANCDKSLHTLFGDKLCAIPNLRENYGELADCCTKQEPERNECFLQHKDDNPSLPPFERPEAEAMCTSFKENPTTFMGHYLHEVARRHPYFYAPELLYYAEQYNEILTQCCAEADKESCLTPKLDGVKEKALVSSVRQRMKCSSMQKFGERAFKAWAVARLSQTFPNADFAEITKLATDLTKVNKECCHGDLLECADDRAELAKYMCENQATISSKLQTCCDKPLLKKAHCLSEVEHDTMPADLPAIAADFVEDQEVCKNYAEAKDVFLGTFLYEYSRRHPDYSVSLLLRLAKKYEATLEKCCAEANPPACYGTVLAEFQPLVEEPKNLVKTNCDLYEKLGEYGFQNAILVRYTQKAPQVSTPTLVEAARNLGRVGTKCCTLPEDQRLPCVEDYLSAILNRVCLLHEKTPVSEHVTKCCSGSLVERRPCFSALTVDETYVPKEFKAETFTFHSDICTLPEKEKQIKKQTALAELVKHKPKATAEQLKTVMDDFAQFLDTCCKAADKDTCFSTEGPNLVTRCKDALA

## amph-eOD (eOD-GT8 with N-terminal cysteine and C-terminal PADRE, conjugated to PEG2K-DSPE)
  percent of added protein bound to the resin: 60%
